Measurements reported in patent US20240083986A1 (published 2024).

What was measured:
[1] = target: T1, European Hornbeam (Car b 1 isoform 2, MyBiosource, Cat #MBS1043940) (European Hornbeam, UniProt P38950 2-160, limits assumed); experiment: SPR Biacore, 25C;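 further: binding of related allergens to purified monoclonal anti-Bet v 1 antibodies by surface plasmon resonance in HEPES-buffered saline pH 7.4, kinetics fitted to a 1:1 model with mass transport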
T1 construct: Bought reagent
T1 sequence (looked up): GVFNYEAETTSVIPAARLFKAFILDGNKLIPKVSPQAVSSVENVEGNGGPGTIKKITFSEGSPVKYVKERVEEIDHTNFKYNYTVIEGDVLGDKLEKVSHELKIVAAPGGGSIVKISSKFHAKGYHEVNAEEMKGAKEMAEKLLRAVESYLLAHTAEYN

[2] = target: T2, Alder (Aln g 1, MyBiosource, Cat #MBS1041484) (Alder, UniProt P38948 2-160, limits assumed); experiment: SPR Biacore, 25C;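 further: binding of related allergens to purified monoclonal anti-Bet v 1 antibodies by surface plasmon resonance in HEPES-buffered saline pH 7.4, kinetics fitted to a 1:1 model with mass transport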
T2 construct: Bought reagent
T2 sequence (looked up): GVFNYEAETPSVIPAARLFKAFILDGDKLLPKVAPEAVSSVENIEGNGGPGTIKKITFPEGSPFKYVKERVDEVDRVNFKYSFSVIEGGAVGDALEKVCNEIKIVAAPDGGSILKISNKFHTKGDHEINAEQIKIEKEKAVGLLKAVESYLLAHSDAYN

[3] = target: T3, European Hornbeam (Car b 1 isoform 1A & 1B, MyBiosource, Cat #MBS1200018) (European Hornbeam, UniProt P38949 2-160); experiment: SPR Biacore, 25C;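 further: binding of related allergens to purified monoclonal anti-Bet v 1 antibodies by surface plasmon resonance in HEPES-buffered saline pH 7.4, kinetics fitted to a 1:1 model with mass transport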
T3 construct: Bought reagent
T3 sequence (looked up): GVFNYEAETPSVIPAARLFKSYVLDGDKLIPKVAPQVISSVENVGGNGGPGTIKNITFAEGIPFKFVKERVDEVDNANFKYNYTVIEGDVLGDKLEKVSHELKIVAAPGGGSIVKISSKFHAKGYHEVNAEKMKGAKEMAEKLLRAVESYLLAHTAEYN

[4] = target: T4, Apple (Mal d 1, MyBiosource, Cat #MBS1224919) (Apple, UniProt P43211 2-159, limits assumed); experiment: SPR Biacore, 25C;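 further: binding of related allergens to purified monoclonal anti-Bet v 1 antibodies by surface plasmon resonance in HEPES-buffered saline pH 7.4, kinetics fitted to a 1:1 model with mass transport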
T4 construct: Bought reagent
T4 sequence (looked up): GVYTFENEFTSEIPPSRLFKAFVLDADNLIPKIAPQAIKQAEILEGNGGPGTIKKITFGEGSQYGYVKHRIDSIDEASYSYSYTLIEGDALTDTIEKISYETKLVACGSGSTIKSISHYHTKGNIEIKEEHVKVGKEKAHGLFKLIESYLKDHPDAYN

[5] = target: T5, Celery (Api g 1, MyBiosource, Cat #MBS1171376) (Celery, UniProt P49372 1-154, limits assumed); experiment: SPR Biacore, 25C
T5 construct: Bought reagent
T5 sequence (looked up): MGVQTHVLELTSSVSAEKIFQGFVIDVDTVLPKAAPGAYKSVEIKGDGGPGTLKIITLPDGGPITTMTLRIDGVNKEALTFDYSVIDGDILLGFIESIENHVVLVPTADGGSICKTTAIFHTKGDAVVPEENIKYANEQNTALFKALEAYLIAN

[6] = target: T6, natural Bet v 1 (Indoor, Cat #NA-BV1-1) (Betula verrucosa (European white birch, …, UniProt P15494 2-160)); experiment: SPR Biacore, mAb captured on anti-hFc, 37C;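 further: purified anti-Bet v 1 monoclonal antibodies, HBS-ET running buffer pH 7.4, rate constants from 1:1 model fit with mass transport limitation, KD and t½ calculated from kinetic constants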
T6 construct: Bought natural protein purified from birch pollen; also called nBet v 1
T6 sequence: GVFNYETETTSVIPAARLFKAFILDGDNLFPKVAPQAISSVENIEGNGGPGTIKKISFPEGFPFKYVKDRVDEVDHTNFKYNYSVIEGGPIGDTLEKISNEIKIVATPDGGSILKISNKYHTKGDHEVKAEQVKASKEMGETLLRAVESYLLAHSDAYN

[7] = target: T6, natural Bet v 1 (Indoor, Cat #NA-BV1-1); experiment: SPR Biacore, mAb captured on anti-hFc, 25C;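 further: rate constants from sensorgrams fitted to a 1:1 model with mass transport limitation, KD and t½ derived from kinetic constants, run in HBS-ET buffer at pH 7.4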

Row | Binder | binding result [1] | binding result [2] | binding result [3] | binding result [4] | binding result [5] | 100 nM natural Bet v 1 Bound (RU) [6] | Kd [6] | koff [6] | kon [6] | t½ [6] | 100 nM natural Bet v 1 Bound (RU) [7] | Kd [7] | koff [7] | kon [7] | t½ [7]
1 | H4H17045P2 (antibody, human IgG4, V domains shown) VH: EVQLVESGGGLVQPGVSLRLSCVASGFTFSNYDITWIRQIPGKGLEWVSRISGSGGSTYFADSVKGRFIISRDNSKNTVYMQMNSLRAEDSAVYYCARRDSVLFSMNSWLDPWGQGTLVTVSS VL: not shown | no binding (tested: 100 nM) | no binding (tested: 100 nM) | no binding (tested: 100 nM) | no binding (tested: 100 nM) | no binding (tested: 100 nM) | 90 RU | 1.86 nM | 0.000441 s⁻¹ | 237000 M⁻¹ s⁻¹ | 26 min | 69 RU | 1.22 nM | 0.000149 s⁻¹ | 122000 M⁻¹ s⁻¹ | 78 min
2 | H4H16950P (antibody, human IgG4, V domains shown) VH: QVQLVQSGAEVKKPGASVKVSCKTSGYTFTNYGITWVRQAPGQGLEWMGWISAYNGNTNYAQNVQGRVTMTTDTSTSTAYMEVRSLRSDDTAVYYCARRSSMLHFQHWGQGTLVTVSS VL: DIVMTQSPDSLAVSLGERATINCKSSQHVLYDSSNENYLAWFQQKPGQPPKLLIYWASTRESGVPDRFSGSGSGTDFTLTISSLQAEDVAVYYCQQYSSAPYTFGQGTKLEIK | no binding (tested: 100 nM) |  | no binding (tested: 100 nM) | no binding (tested: 100 nM) | no binding (tested: 100 nM) | 76 RU | 8.57 nM | 0.00121 s⁻¹ | 141000 M⁻¹ s⁻¹ | 10 min | 58 RU | 5.23 nM | 0.000503 s⁻¹ | 96100 M⁻¹ s⁻¹ | 23 min
3 | H4H17015P (antibody, human IgG4, V domains shown) VH: QVQLQESGPGLVKPSQTLSLTCTVSGGSISSADHYWSWIRQQPGKGLEWIGYISYRGTTYYNPTLESRVSISVDTFKNQFSLMLHSVTVADTAVYYCAKVLQGLVRFRDYGFDVWGQGTTVTVSS VL: DIQLTQSPPFLSASVGDRVTITCWASQDISSYLAWYQQNPGKSPKLLIYDAFTLHTGVPSRFSGSGSGTEFTLTISSLQPEDFATFYCQHLYSFPFTFGPGTKVDIK | no binding (tested: 100 nM) | no binding (tested: 100 nM) | no binding (tested: 100 nM) | no binding (tested: 100 nM) | no binding (tested: 100 nM) | 84 RU | 2.7 nM | 0.000792 s⁻¹ | 293000 M⁻¹ s⁻¹ | 15 min | 68 RU | 1.34 nM | 0.000246 s⁻¹ | 184000 M⁻¹ s⁻¹ | 47 min
4 | H4H17067P2 (antibody, human IgG4, V domains shown) VH: EVQLVQSGAEVKKPGESLKISCSGSGYRFTNYWIAWVRQMPGKGLEWMGLIHPDDSDIRYSPSFQGQVTFSVDKSINTAYLQWSSLKASDTAMYYCTRQDGILWSHNAWFDPWGQGTLVTVSS VL: not shown | no binding (tested: 100 nM) | no binding (tested: 100 nM) | no binding (tested: 100 nM) | no binding (tested: 100 nM) | no binding (tested: 100 nM) | 80 RU | 5.48 nM | 0.00147 s⁻¹ | 268000 M⁻¹ s⁻¹ | 7.9 min | 58 RU | 3.56 nM | 0.000402 s⁻¹ | 113000 M⁻¹ s⁻¹ | 29 min
5 | H4H16979P (antibody, human IgG4, V domains shown) VH: QVQLVQSGAEVKKPGASVKVSCKASGYTFIAYYLHWVRQAPGQGLEWMGLLNPYTGGSYYTQKFQGRVTMTRDTSIDTAYMELNSLRSDDTAIYYCARDKRSYYIPYAFEIWGQGTMVTVSS VL: not shown |  | no binding (tested: 100 nM) | no binding (tested: 100 nM) | no binding (tested: 100 nM) | no binding (tested: 100 nM) | 52 RU | 1.8 nM | 0.000616 s⁻¹ | 342000 M⁻¹ s⁻¹ | 19 min | 41 RU | 1.21 nM | 0.000278 s⁻¹ | 230000 M⁻¹ s⁻¹ | 42 min
6 | H4H16960P (antibody, human IgG4, V domains shown) VH: QLQLQESGPGLVRPSETLSLTCTVSGGSISSSNYWWGWIRQPPGKGLEWIGSIYYSGITYYNPSLKSRVTISADTSKDQFSLKLRSVTAADTAVYYCAKLEWLRLDFWGQGTTVTVSS VL: DIQMTQSPSSVSASVGDRVTITCRASQGISSWLVWYQQKPGKVPKLLIYAASSLQSGVPLRFSGSGSGTDFTLTISSLQPEDFATYYCQQAKSFPLTFGQGTRLEIK | no binding (tested: 100 nM) |  | no binding (tested: 100 nM) | no binding (tested: 100 nM) | no binding (tested: 100 nM) | 65 RU | 2.54 nM | 0.00168 s⁻¹ | 662000 M⁻¹ s⁻¹ | 6.8 min | 57 RU | 1.64 nM | 0.00069 s⁻¹ | 422000 M⁻¹ s⁻¹ | 17 min
7 | H4H16991P (antibody, human IgG4, V domains shown) VH: QVQLVQSGAEVRKPGASVKVSCKASGYTFTGYYLHWVRQAPGQGLEWMGLINPNTGGTNFAQKFQGRVTMTRDSSISAAYMELSRLRSDDTAVYYCARQHWNRYFDNWGQGTLVTVSS VL: DIQMTQSPSTLSASVGDRVTITCRASQSVGNWLAWYQQKPGKAPKLLIQEASSIESGVPSRFSGSGSGTEFTLIVSSLQPDDFATYYCQQYNSYSWTFGHGTKVEIK |  | no binding (tested: 100 nM) | no binding (tested: 100 nM) | no binding (tested: 100 nM) | no binding (tested: 100 nM) | 66 RU | 2.16 nM | 0.00108 s⁻¹ | 500000 M⁻¹ s⁻¹ | 11 min | 57 RU | 1.06 nM | 0.000312 s⁻¹ | 295000 M⁻¹ s⁻¹ | 37 min
